Laboratory results from patent US20230149522A1, “POLYPEPTIDE FOR THE PROPHYLAXIS AND TREATMENT OF VIRAL INFECTIONS” (priority 2020, published 2023).
Read-outs that look alike come from different tables or passages of the source.

Legend:
LV(Luc)-G = format: cell-based, Vesicular Stomatitis Virus
LV(Luc)-CoV-2 [1] = assay: microbe, parasite or virus in culture; details: Severe acute respiratory syndrome coronavirus 2, Caco-2, read-out: IC50 LV(Luc)-CoV-2
VSV(Luc-eGFP)-CoV-2 [2] = assay: microbe, parasite or virus in culture; details: Vesicular stomatitis virus, Caco-2, read-out: IC50 VSV(Luc-eGFP)-CoV-2
LV(Luc)-CoV-2 [3] = tested on: LV(Luc)-CoV-2
VSV(Luc-eGFP)-CoV-2 [4] = tested on: VSV(Luc-eGFP)-CoV-2
[5] = tested on: Caco2 (colorectal carcinoma cells)
[6] = tested on: Caco2 (colorectal carcinoma cells); remark: listed apart in the source
[7] = read-out: IC50 VSV(Luc-eGFP)-CoV-2

For `CN(C)C(=O)COC(=O)Cc1ccc(OC(=O)c2ccc(NC(=N)N)cc2)cc1` [CM, camostat mesilate, reference compound], which “IC50 LV(Luc)-MLV” value (LV(Luc)-MLV) is on record?
Its value is “unstable”.

And the “IC50 LV(Luc)-G” value (LV(Luc)-G)?
The value was “unstable”.

What about the IC50 (LV(Luc)-CoV-2 [1]) of the same molecule?
The IC50 was 242 nM.

And the IC50 (VSV(Luc-eGFP)-CoV-2 [2])?
The IC50 was 87.5 nM.

How did the IC50 (VSV(Luc-eGFP)-G; 2 h) turn out when `CC[C@H](C)[C@H](NC(=O)[C@H](C)NC(=O)[C@H](CCC(=O)O)NC(=O)[C@H](CCC(=O)O)NC(=O)[C@H](CC(C)C)NC(=O)[C@H](CCCCN)NC(=O)[C@H](CCCCN)NC(=O)[C@H](CCSC)NC(=O)[C@H](CCC(=O)O)NC(=O)[C@H](Cc1ccc(O)cc1)NC(=O)[C@H](CCC(=O)O)NC(=O)[C@H](CC(C)C)NC(=O)[C@H](CC(=O)O)NC(=O)[C@H](CC(C)C)NC(=O)[C@H](Cc1ccccc1)NC(=O)[C@@H](NC(=O)[C@@H](NC(=O)[C@H](CC(N)=O)NC(=O)[C@@H](NC(=O)[C@H](CCC(N)=O)NC(=O)[C@H](CC(=O)O)NC(=O)[C@H](CC(C)C)NC(=O)[C@@H](N)CO)[C@@H](C)CC)C(C)C)[C@@H](C)O)C(=O)N[C@@H](CCCCN)C(=O)N[C@@H](CCCCN)C(=O)N[C@@H](CC(C)C)C(=O)N[C@@H](CCC(=O)O)C(=O)N[C@@H](CCC(=O)O)C(=O)N[C@@H](CO)C(=O)N[C@@H](Cc1ccc(O)cc1)C(=O)N[C@H](C(=O)N[C@@H](CC(=O)O)C(=O)N[C@@H](CC(C)C)C(=O)N[C@@H](CCCCN)C(=O)N[C@@H](CCC(=O)O)C(=O)N[C@@H](CC(C)C)C(=O)O)[C@@H](C)CC` [EK1, reference compound] was run?
The IC50 was greater than 20000 nM.

What about the IC50 (LV(Luc)-MLV; 1 h) of the same molecule?
The IC50 was greater than 20000 nM.

What about the IC50 (LV(Luc)-CoV-2 [3]; 1 h) of the same molecule?
The IC50 was 82.4 nM.

What about the IC50 (VSV(Luc-eGFP)-CoV-2 [4]; 2 h) of the same molecule?
Its IC50 is 281 nM.

B1: LD2/3 (protein)
chain: ARHLARAPKATAPTELNCDDFKKGERDGDFICPDYYEAVCGTDGKTYDNRCALCAENAKTGSQIGVKSEGECKSSNPEQDVCSAFRPFVRDGRLGCTRENDPVLGPDGKTHGNKCAMCAELFLKEAENAKREGETRIRRN
modifications: human
Which results are given for B1?
IC50 (VSV(Luc-eGFP)-G; read-out: IC50 VSV(Luc-eGFP)-G): 257 nM; IC50 (LV(Luc)-MLV; read-out: IC50 LV(Luc)-MLV): 343 nM; toxicity at the concentrations tested [5]: toxic at the (two) maximum concentrations tested; IC50 (LV(Luc)-G): 128 nM; IC50 (LV(Luc)-CoV-2 [3]; read-out: IC50 LV(Luc)-CoV-2): 181 nM; IC50 (VSV(Luc-eGFP)-CoV-2 [4]; [7]): 411 nM

B2: LD6 (protein)
chain: ESGKATSYAELCNEYRKLVRNGKLACTRENDPIQGPDGKVHGNTCSMCEVFFQAEEEEKKKKEGESRNKR
modifications: human
For B2, which IC50 (VSV(Luc-eGFP)-G; read-out: IC50 VSV(Luc-eGFP)-G) is on record?
Its IC50 is 1610 nM.

And the “IC50 LV(Luc)-MLV” value (LV(Luc)-MLV)?
Its value is “unstable”.

What about the “toxicity at the concentrations tested” value [5] of the same molecule?
The value was “toxic at the (two) maximum concentrations tested”.

What about the IC50 (LV(Luc)-G) of the same molecule?
The IC50 was 2150 nM.

And the IC50 (LV(Luc)-CoV-2 [3]; read-out: IC50 LV(Luc)-CoV-2)?
Its IC50 is 1030 nM.

And the IC50 (VSV(Luc-eGFP)-CoV-2 [4]; [7])?
The IC50 was 4090 nM.

And the “toxicity at the concentrations tested” value [6]?
The value was “toxic at the (two) maximum concentrations tested”.

B3: LD15 (protein)
chain: EEDSPDSFSSLDSEMCKDYRVLPRIGYLCPKDLKPVCGDDGQTYNNPCMLCHENLIRQTNTHIRSTGKCEESSTPGTTAASMPPSDE
modifications: human
What does the source list for B3?
IC50 (VSV(Luc-eGFP)-G; read-out: IC50 VSV(Luc-eGFP)-G): 1020 nM; IC50 (LV(Luc)-MLV; read-out: IC50 LV(Luc)-MLV): 1270 nM; toxicity at the concentrations tested [5]: toxic at the (two) maximum concentrations tested; IC50 (LV(Luc)-G): 545 nM; IC50 (LV(Luc)-CoV-2 [3]; read-out: IC50 LV(Luc)-CoV-2): 956 nM; IC50 (VSV(Luc-eGFP)-CoV-2 [4]; [7]): 1850 nM
